{"source": "patent US20250043302A1", "about": "“MUTATED HYDROXYPHENYLPYRUVATE DIOXYGENASE POLYPEPTIDE, AND CODING GENE AND USE THEREOF” (BEIJING DABEINONG BIOTECHNOLOGY CO., LTD., priority 2021, published 2025)", "format_in_all_cases": "in vivo", "key": {"[1]": {"test_system": "Arabidopsis thaliana T1 plants", "assay": "Mesotrione tolerance of transgenic Arabidopsis thaliana T1 plants (spray, bleached leaf area grade, damage score)", "set-up": "Scores: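 damage score 0-100 computed as Σ(N×S)/(T×M)×100 over grades 0-3 with higher meaning more damage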", "conditions": "Arabidopsis thaliana T1 plants; for Grade 0 (classification and statistics of the grade of pesticide damage; number of plants) / Grade 1 (classification and statistics of the grade of pesticide damage; number of plants) / Grade 2 (classification and statistics of the grade of pesticide damage; number of plants) / Grade 3 (classification and statistics of the grade of pesticide damage; number of plants): 16 plants", "procedure,_shortened": "(§1)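 Read-out: per-plant damage grade 0–3 from proportion of bleached leaf area at 7 DAT (1 <50%, 2 >50%, 3 100%). Plants were T1 transformants, glufosinate-selected, plus wild-type CK, sprayed 18 days post-sowing. Rates: topramezone 25–200, isoxaflutole 35–280, mesotrione 52.5–420 g ai/ha.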"}, "[2]": {"test_system": "Arabidopsis thaliana T1 plants", "assay": "Topramezone tolerance of transgenic Arabidopsis thaliana T1 plants (spray, bleached leaf area grade, damage score)", "conditions": "7 DAT, Table 4; for Classification and statistics of the grade of pesticide damage: Grade 0 / Classification and statistics of the grade of pesticide damage: Grade 1 / Classification and statistics of the grade of pesticide damage: Grade 2 / Classification and statistics of the grade of pesticide damage: Grade 3: number of plants; for Scores: pesticide damage score 0-100", "procedure,_shortened": "as §1"}, "[3]": {"test_system": "Arabidopsis thaliana T1 plants", "assay": "Isoxaflutole tolerance of transgenic Arabidopsis thaliana T1 plants (spray, bleached leaf area grade, damage score)", "set-up": "Scores (pesticide damage): scale not given here", "conditions": "spray, Arabidopsis thaliana T1 plants; for Classification and statistics of the grade of pesticide damage: Grade 0 (number of plants) / Classification and statistics of the grade of pesticide damage: Grade 1 (number of plants) / Classification and statistics of the grade of pesticide damage: Grade 2 (number of plants) / Classification and statistics of the grade of pesticide damage: Grade 3 (number of plants): 16 plants", "procedure,_shortened": "as §1"}, "[4]": {"conditions": "isoxaflutole 35 g ai/ha (0.5x field concentration)"}, "[5]": {"conditions": "isoxaflutole 70 g ai/ha (1x field concentration)"}}, "data": [{"molecule": "BnHPPDm-F372A-F383W-02: nucleotide sequence encoding Brassica napus HPPD with F372A+F383W; vector DBN11745 (nucleic acid, BnHPPDm-F372A-F383W-02 Nucleotide Sequence, vector DBN11745) DNA: ATGGGACATGAAAACGCGGCAGTGTGTGAAACTCAACAACATGATGACGCCGCCTCCCCGGGGTTTAAACTTGTCGGGTTCTCAAAATTTGTTAGGAAGAATCCAAAGTCTGACAAGTTCAAGGTGAAACGCTTCCACCACATCGAGTTCTGGTGCGGGGATGCAACAAATGTTTCACGCCGCTTTTCATGGGGACTAGGAATGAGGTTTAGCGCAAAGAGTGATCTCTCCACTGGTAATATGGTTCATGCGAGCTACTTGCTCACATCTGGAGACCTGAGATTCCTCTTCACCGCACCATATTCTCCCTCCCTGTCAGCTGGTGAAGCTCAGCCTTCAGCAACTGCAAGTATCCCTTCGTTTGATCATGCATCGTGCAGGTCTTTCTTCAGTTCACATGGACTCGGCGTCAGAGCAGTAGCGATCGAAGTAGAGGATGCTGAATCAGCTTTCTCCATATCTGTCGCCAACGGCGCGGTGCCTTCTTCTCCACCAAACGTCTTGAATGGTGCTGTTACCATTGCTGAGGTGAAGCTGTACGGAGATGTTGTTTTAAGATATGTTTCATATTACAATGGGACCGTTTCTTTTCTTCCCGGCTTTGAATCTGTTGATGATACTTCTTCCTTCCCTCTTGATTATGGGATCAGGCGGCTGGACCACGCCGTCGGCAACGTGCCGGAGTTAGGTCCTGCTTTGACATATCTTGCCGGCTTCACTGGATTCCATCAATTTGCAGAGTTTACGGCTGACGACGTGGGGACCGCGGAGAGTGGGCTGAACTCAGCAGTCTTGGCCAACAATGATGAAATGGTGCTCCTCCCCATCAATGAACCTGTGCATGGAACAAAGAGAAAGTCGCAGATTCAAACATTTTTAGAGCACAATGAGGGAGCTGGGCTACAGCACCTCGCATTGATGTCAGAAGATATTTTTCGAACGTTGAGGGAGATGCGGAAACGATCTGGTGTAGGCGGCTTTGACTTCATGCCATCCCCTCCGCCAACCTACTACAAGAACCTGAAGAAGAGGGTTGGAGACGTCCTTTCCGAGGAGCAAATTGAAGAATGTGAGGAGCTTGGAATTCTGGTGGACAGAGATGATCAAGGAACACTACTTCAGATCGCCACAAAACCATTGGGCGACAGGCCAACGATATGGATTGAGATCATTCAGCGCGTTGGATGCATGAAGCGTGATGAGGAAGGGAAGGTCTACCAGAGTGGCGGTTGTGGTGGATTTGGAAAAGGAAATTTTTCTGAGCTGTTCAAAAGCATAGAAGAGTATGAGAAAACATTGGAGGCCAAGCAGCTTGTTGGTTGA", "values": [{"measurement": "Resistance evaluation", "setting": "[1]; mesotrione 52.5 g ai/ha", "result": "Moderately"}, {"measurement": "Scores", "setting": "[1]; mesotrione 52.5 g ai/ha", "result": 31}, {"measurement": "Grade 0 (classification and statistics of the grade of pesticide damage; number of plants)", "setting": "[1]; mesotrione 52.5 g ai/ha", "result": 5}, {"measurement": "Grade 1 (classification and statistics of the grade of pesticide damage; number of plants)", "setting": "[1]; mesotrione 52.5 g ai/ha", "result": 8}, {"measurement": "Grade 2 (classification and statistics of the grade of pesticide damage; number of plants)", "setting": "[1]; mesotrione 52.5 g ai/ha", "result": 2}, {"measurement": "Grade 3 (classification and statistics of the grade of pesticide damage; number of plants)", "setting": "[1]; mesotrione 52.5 g ai/ha", "result": 1}, {"measurement": "Resistance evaluation", "setting": "[1]; mesotrione 105 g ai/ha", "result": "Poorly resistant"}, {"measurement": "Scores", "setting": "[1]; mesotrione 105 g ai/ha", "result": 40}, {"measurement": "Grade 0 (classification and statistics of the grade of pesticide damage; number of plants)", "setting": "[1]; mesotrione 105 g ai/ha", "result": 0}, {"measurement": "Grade 1 (classification and statistics of the grade of pesticide damage; number of plants)", "setting": "[1]; mesotrione 105 g ai/ha", "result": 13}, {"measurement": "Grade 2 (classification and statistics of the grade of pesticide damage; number of plants)", "setting": "[1]; mesotrione 105 g ai/ha", "result": 3}, {"measurement": "Grade 3 (classification and statistics of the grade of pesticide damage; number of plants)", "setting": "[1]; mesotrione 105 g ai/ha", "result": 0}, {"measurement": "Classification and statistics of the grade of pesticide damage: Grade 0", "setting": "[2]; topramezone 25 g ai/ha (1×)", "result": 6}, {"measurement": "Classification and statistics of the grade of pesticide damage: Grade 1", "setting": "[2]; topramezone 25 g ai/ha (1×)", "result": 6}, {"measurement": "Classification and statistics of the grade of pesticide damage: Grade 2", "setting": "[2]; topramezone 25 g ai/ha (1×)", "result": 4}, {"measurement": "Classification and statistics of the grade of pesticide damage: Grade 3", "setting": "[2]; topramezone 25 g ai/ha (1×)", "result": 0}, {"measurement": "Classification and statistics of the grade of pesticide damage: Grade 0", "setting": "[2]; topramezone 100 g ai/ha (4×)", "result": 3}, {"measurement": "Classification and statistics of the grade of pesticide damage: Grade 1", "setting": "[2]; topramezone 100 g ai/ha (4×)", "result": 8}, {"measurement": "Classification and statistics of the grade of pesticide damage: Grade 2", "setting": "[2]; topramezone 100 g ai/ha (4×)", "result": 5}, {"measurement": "Classification and statistics of the grade of pesticide damage: Grade 3", "setting": "[2]; topramezone 100 g ai/ha (4×)", "result": 0}, {"measurement": "Scores", "setting": "[2]; topramezone 25 g ai/ha (1×)", "result": 29}, {"measurement": "Scores", "setting": "[2]; topramezone 100 g ai/ha (4×)", "result": 38}, {"measurement": "Resistance evaluation", "setting": "[2]; topramezone 25 g ai/ha (1×)", "result": "moderately"}, {"measurement": "Resistance evaluation", "setting": "[2]; topramezone 100 g ai/ha (4×)", "result": "poorly"}, {"measurement": "Resistance evaluation", "setting": "[3]; [4]", "result": "Moderately"}, {"measurement": "Scores (pesticide damage)", "setting": "[3]; [4]", "result": 29}, {"measurement": "Classification and statistics of the grade of pesticide damage: Grade 0 (number of plants)", "setting": "[3]; [4]", "result": 5}, {"measurement": "Classification and statistics of the grade of pesticide damage: Grade 1 (number of plants)", "setting": "[3]; [4]", "result": 8}, {"measurement": "Classification and statistics of the grade of pesticide damage: Grade 2 (number of plants)", "setting": "[3]; [4]", "result": 3}, {"measurement": "Classification and statistics of the grade of pesticide damage: Grade 3 (number of plants)", "setting": "[3]; [4]", "result": 0}, {"measurement": "Resistance evaluation", "setting": "[3]; [5]", "result": "Moderately"}, {"measurement": "Scores (pesticide damage)", "setting": "[3]; [5]", "result": 33}, {"measurement": "Classification and statistics of the grade of pesticide damage: Grade 0 (number of plants)", "setting": "[3]; [5]", "result": 3}, {"measurement": "Classification and statistics of the grade of pesticide damage: Grade 1 (number of plants)", "setting": "[3]; [5]", "result": 10}, {"measurement": "Classification and statistics of the grade of pesticide damage: Grade 2 (number of plants)", "setting": "[3]; [5]", "result": 3}, {"measurement": "Classification and statistics of the grade of pesticide damage: Grade 3 (number of plants)", "setting": "[3]; [5]", "result": 0}]}]}
